According to PMC7253899 (Saudi Journal of Biological Sciences, 2020):

Molecular target: the molecule itself
Experiment: SEC-MALS

B1: TRAIP Leucine zipper domain (198-280 a.a) (domain or fragment, human, UniProt Q9BWF2 198-280, looked up)
chain: AVYCVSLKKEYENLKEARKASGEVADKLRKDLFSSRSKLQTVYSELDQAKLELKSAQKDLQSADKEIMSLKKKLTMLQETLNL
stoichiometry N: 3
